Literature values in paper PMC5722893.

What was measured:
TSLPR (Homo sapiens) = TSLPR (Homo sapiens) (UniProt Q9HC73)
[1] = biological target: TSLP:TSLPR complex (Homo sapiens) (UniProt Q969D9)

UniProt Q9HC73, sequence (Q9HC73 23-231): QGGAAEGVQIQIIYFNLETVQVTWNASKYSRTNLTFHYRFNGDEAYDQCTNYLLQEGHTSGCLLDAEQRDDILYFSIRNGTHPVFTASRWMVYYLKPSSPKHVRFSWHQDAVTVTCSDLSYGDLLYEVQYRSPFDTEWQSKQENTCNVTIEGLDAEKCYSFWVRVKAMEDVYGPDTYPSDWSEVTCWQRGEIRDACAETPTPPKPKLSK

Kd (TSLPR (Homo sapiens)) | Kd [1] | Substance
32 nM | – | TSLP (from UniProt Q969D9)
– | 29 nM | IL-7Ralpha (from UniProt P16871)
